Consider 1 molecule from PMC12398788, “Molecular basis of the autoregulatory mechanism of motor neuron-related splicing factor 30”.

Positions count from the first letter of the chain named.

One series concerns the target T1, SPF30 ΔC5 (human, UniProt O75940 1-217).
T1 sequence: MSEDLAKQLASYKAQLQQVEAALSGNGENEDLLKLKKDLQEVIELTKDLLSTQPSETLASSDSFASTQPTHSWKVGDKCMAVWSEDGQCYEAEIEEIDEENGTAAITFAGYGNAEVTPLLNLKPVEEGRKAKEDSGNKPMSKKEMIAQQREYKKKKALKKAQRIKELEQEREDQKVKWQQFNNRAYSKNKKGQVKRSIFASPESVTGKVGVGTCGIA
Description: EMSA; 200 or 400 ng protein; EMSA: 40 mM Tris-HCl pH 7.4, 30 mM KCl, 1 mM MgCl2, 0.01% IGEPAL CA-630, 25 °C 30 min, 20 fmol RNA in 12 µl; UV cross-linking: 50 mM Tris-HCl pH 7.4, 150 mM NaCl, 0.5% IGEPAL CA-630, 4 °C 4 h. The note with it: protein: recombinant; tags: N-terminal 6xHis; label: biotin; stem-loop predicted at intron 3/exon 4a/exon 4.

The target of a further series is T2, SPF30 ΔC1 (human, UniProt O75940 1-164).
T2 sequence: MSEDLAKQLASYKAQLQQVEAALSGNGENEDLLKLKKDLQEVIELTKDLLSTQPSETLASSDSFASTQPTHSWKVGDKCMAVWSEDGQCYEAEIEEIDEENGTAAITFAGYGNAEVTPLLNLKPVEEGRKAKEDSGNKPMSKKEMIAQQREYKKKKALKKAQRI
The description is as above. The conditions noted are these: protein: recombinant; tags: N-terminal 6xHis; label: biotin; stem-loop predicted at intron 3/exon 4a/exon 4.

For another series, the target named is T3, 6xHis-SPF30 WT (human, UniProt O75940 1-238).
T3 sequence: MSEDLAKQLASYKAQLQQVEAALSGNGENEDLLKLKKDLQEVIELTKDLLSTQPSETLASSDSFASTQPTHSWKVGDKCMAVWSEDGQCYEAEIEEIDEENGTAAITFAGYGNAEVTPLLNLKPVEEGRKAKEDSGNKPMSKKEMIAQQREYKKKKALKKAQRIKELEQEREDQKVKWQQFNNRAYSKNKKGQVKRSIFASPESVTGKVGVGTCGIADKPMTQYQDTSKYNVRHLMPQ
Described as above. The note with it: protein: recombinant; tags: N-terminal 6xHis (pCold I); C-terminal FLAG from primer KI-125; label: biotin; stem-loop predicted at intron 3/exon 4a/exon 4.

The next series has as its target T4, SPF30 FSV3A (human, UniProt O75940 1-238, F199A;S201A;V209A).
T4 sequence: T3 sequence with F199A, S201A, V209A
Description: EMSA; 200 or 400 ng protein; distinct mobility from WT; EMSA: 40 mM Tris-HCl pH 7.4, 30 mM KCl, 1 mM MgCl2, 0.01% IGEPAL CA-630, 25 °C 30 min, 20 fmol RNA in 12 µl; UV cross-linking: 50 mM Tris-HCl pH 7.4, 150 mM NaCl, 0.5% IGEPAL CA-630, 4 °C 4 h. The conditions noted are these: protein: recombinant; tags: N-terminal 6xHis; label: biotin; stem-loop predicted at intron 3/exon 4a/exon 4.

The next series concerns the target T5, SPF30 197-217 peptide (human, UniProt O75940 197-217).
T5 chain: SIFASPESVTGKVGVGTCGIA
Description: EMSA; EMSA: 40 mM Tris-HCl pH 7.4, 30 mM KCl, 1 mM MgCl2, 0.01% IGEPAL CA-630, 25 °C 30 min, 20 fmol RNA in 12 µl; UV cross-linking: 50 mM Tris-HCl pH 7.4, 150 mM NaCl, 0.5% IGEPAL CA-630, 4 °C 4 h. The note with it: label: biotin; stem-loop predicted at intron 3/exon 4a/exon 4.

B1: BT-RNA WT (ssRNA)
RNA: CUGCUUACAGCCAUGAUAUCUUUACAGGUGUUAUGAAGCGG
Turning to B1, the binding result with SPF30 ΔC5 was “binds”; with SPF30 ΔC1, “no binding”; in the series with 6xHis-SPF30 WT, “binds”; with SPF30 FSV3A, “binds”; in the series with SPF30 197-217 peptide it was “no binding”.
